Experimental data taken from the nanobody polyreactivity screen of Harvey et al. (2022).

Assay: yeast display, Sf9 membrane polyspecificity reagent, FACS + sequencing; frameworks hold sequencing errors
Summary of the method: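 Galactose induction of a Saccharomyces cerevisiae BJ5465 synthetic nanobody display library ran 36–48 hours. The cells were then stained for 1 hour at 4 °C with 10% biotinylated, detergent-solubilized Sf9 membrane reagent, pulled down on streptavidin microbeads and FACS-sorted into low and high (top ~1%) gates on expression and reagent-binding fluorescence. Labels for polyreactivity follow the gate of origin.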

Row | Sequence | polyreactivity (PSR sort gate)
1 | QVQLVESGGGLVQAGGSLRLSCAASGRIFVVNAMGWYRQAPGKERELVATITRGASTYADSVKGRFTISRDNAKNTVYLQMNSLKLEDTAVYYCAAAKRPQVVRYDWTKLEYWGQGTQVTVSS | high polyreactivity
2 | QVQLVESGGGLVQAGGSLRLSCAASGRTFYRNAMGWSRQAPGKERELVAAISYRGGRTYYADSVKGRFTISRDNAKNTVYLQMNSLKPEDTAVYYCAADLRTRVPYDYWGQGTQVTVSS | high polyreactivity
3 | QVQLVESGGGLVQAGGSLRLSCAASGRTFYTNAMGWYRQAPGKERELVAGISWGDGNTYYADSVKGRFTISRDNAKNTVYLQMNSLKPEDTAVYYCAVTYIILWSYSHTEFDYWGQGNQVTVSS | low polyreactivity
4 | QDQLVESGGGLVQAGGSLRLSCAASGRTFYRNAMGWYRQAPGKERELVAAISGSGVRTYYADSVKGRFTISRDNAKNTVYLHMNSLKPEDTAVYYCARSVTWFRGRFSPDYGSWGQGTQVTVSS | high polyreactivity
5 | QVQLVESGGGLVQAGGSLRLSCAASGFTVIDYAMGWYSQAPGKERELVAAITTGTITYYADSVTGRFTISRDNAKNTVYLQMNSLKPEDTAVYYCNADWLTLATTMNYWGQGTQVTVSS | low polyreactivity
6 | QVQLVESGGGLVQAGGSLRLSCAASGYIIDVNTMGWYRPAPGKDRELVAAITSGGTTYYADSVKGRFTISRDNAKNTVYLQMNSLKPEDTAAYYCAALWSRRRSRPSFDYWGQGTQVTVSS | high polyreactivity
7 | QVQLVESGGGLVQAGGSLRLSCAASGFIFWRNAMGWYRQAPGKERELVAAITSGDRTNYADSVKGRFTISRDNAKNTVYLQMNSLKPEDTAVYYCNARRLRLVSYDYCGQGTQVTVSS | low polyreactivity
8 | QVQLVESGGGLVQAGGSLRLSCAASGSIFTYNVMGWYRQAPGKERELVDAISWDGDSTYYSDSVKGRFTISRDNEKNTVYLQMKSLKQDDTAVYYCAADVHEKFQYDYWGQGNQVTVSS | high polyreactivity
9 | QVQLVESGGGLVQAGGSLRLSCAASGFIFPVYTMGWSRQAPGKERELVGAITQIGGSTHYADSVKGRFSISRDNAKNTVYIQMNSLTPDDTAVYYCNAVPSYGTEYDYWGQGTHVTVSS | low polyreactivity
10 | QVQLVESGGGLVQAGGSLRLSCAASGNTFNSYAMGWYRQAPGKERELVAAISSSTGRTYYADSVKGRFTISRDNAKNTVYLQMNSLKPEDTAVYYCNAYLYLSRNGYWGQGTQVTVSS | high polyreactivity
11 | QVQLVESGGGLVQAGGSLRLSCAASGSTFHGNAMGWYRQAPGKERELVAAISRSGGSTYYADSVKGRFTISRDNAKNTVYLQMNSLKPEDTAVYYCAADRPYYPLKYDYWGQGTQVTVSS | high polyreactivity
12 | QVQLVESGGGLVQAGGSLRLSCAASGFTFRVNAMGWYRQAPGKERELVAAISSGGRTYYADSVKGRFTISRDNAKNTVYLQMNSLKPEDTAVYYCNAGRVRHGNDYWGQGTQVTVSS | high polyreactivity
13 | QVQLVESGGGLVQAGGSLRLSCAASGRTFSGYAMGWYRQAPGKARELVAGITWNGGRTYYADSVKGRFTISRDNAKNTVYLQMNSLKPEDTAVYYCNKLGAVYPKYGYWGQGTQVTVSS | high polyreactivity
14 | QVQLVESGGGLVQAGGSLRLSCAASGLIFAFYAMGWYRQAPVKERELVASIDKSGGSTYADSVKGRFTISRDNAKNTVYLQMNSLKQEDTAVYYCAADYSLIDLFYWGQGTQVTVSS | low polyreactivity
15 | QVQLVESGGGLVQAGGILRLSCAASGSTFRLNAMVWYRQEPGKERELVASIRWSVGITYYADSVKGRFTISLDNSKNTFYLQMNSLKPEDTAVYYCANGDTNWRYYYWGQGTQVTVSS | high polyreactivity
16 | QVQLVESGGGLVQAGGSLRLSCAASGSIFKIYAMGWYRQAPGKERELVASITGSGGSTYYADSVKGRFTISRDNAKNTVYLQMNSLKPEDTAVYYCIADGPLDRYEYWGQGTQVTVSS | low polyreactivity
17 | QVQLVESGGGLVQAGGSLRLSCAASGRTFWWYAMGWYRQAPGKERELVAGISGSTGTTHYADSVKGRFTISRDNAKNTVYLQMNSLKPEDTAGYYCAARRRYYRGFLFDYWGQGTQVTVSS | high polyreactivity
18 | QVQLVDSGGGLVQAGGSLRLSCAASGFIFKRYAMGWYRQAPGKERELVAAINGGGSSTYYADSVKGRFTISRDNAKNTVYLQMNSLKPDDTAVYYCAADTDSWWYYLYYGEGFDYWGQGTQVTVSS | high polyreactivity
19 | QVQLVESGGGLVQAGGSLRLSCGASGSTFPTYAMGWYRQAPGKERELVAVITSSGGRTYYADSVKGRFTISRDNAKNTVYLQMNSLKPEDTAVYYCAKGSGTIYNLYDYWGQGTQVTVSS | high polyreactivity
20 | QVQLVESGGGLVQAGGSLRLTCAASGIIFYGYAMGCYRQAPGKERELVADISFSGGRTYYSDSVKGRFTISRDNAKNTVYLQMNRLKQEDTAVYYCAKRRFYRTSQYVKYDYWGQGTQVTVSS | low polyreactivity
21 | QVQLVESGGGLVQAGGSLRLSCAASGSTIYYNAMGWYRQAPGKERELVARISRSGGSTYADSVKGRFTISRDNAKNTVYLQMNSLKPEDTAVYYCNADAYGTPEFTSYAVRYDYWGQGTQVTVSS | low polyreactivity
22 | QVQLVESGGGLVQAGGSLRLSCAASGSIFYRYAMGWYRPAPGKERELVAAITSGGTYYADSVKGRFTISRDNAKNTVYLQMNSLKPEDTAVYYCNRFSYPPSWYDYWGQGTQVTVSS | low polyreactivity

Row | Sequence | polyreactivity (PSR sort gate)
23 | QVQLVESGGGLVQAGGSLRLSCAASGSTFWVYTMGWYRQAPGKERELVAAINYSDGSTYYADSVKGRFTISRDNAKNTVYLQMNRLKPEDTAVYYCAAGSDPTGRRYDYWGQGTQVTVSS | low polyreactivity
24 | QVHLVESGGGLVLAGGSLRLSCAASGSTLHLYAMGWYRQAPGKERELVADITSGGDTYYADSVKGRFTISRDNAKNTVYFQMNSLKPEDTAVYYCAAGPVYDWRGGALRYYYWGQGTQVSVSS | high polyreactivity
25 | QVQLVESGGGLVQAGGSLRLSCAASGRTFTINTLGWYRQAAGKERELVAAIVGDGTTNYADSVKGLFTISGDNAKNTVDLQMNSLKPEDTAVYYCAADAGYLYDWPYNSYYWGQGTQLTVSS | low polyreactivity
26 | QVQLVESGGGLVQAGGSLRLSCAASGRTFGRNAMGWYRQAPGKEREFVAAISRRGDTTYYADSVKGRFTISRDNAKNSVYLQMNSLKPEDTAVYYCNAAVIKDRFSWYYYWGQGTQVTVSS | low polyreactivity
27 | QVQLVESGGGLVQAGGSLRLSCAASGFTFVWYTMGWYRQAPGKERELVAAISSSGGTTYYADSVKGRFTISRDNAKNTVYLQMNSLKPEDTAVYYCNVAYFYTTPTRGYNYWGQGTQVTVSS | high polyreactivity
28 | QVQQQESGGGLVQEGGSLRLSCAASGNISPPADMGWYRQAPGKERELVASIGTGGTTNYADSVKGRFTISRDNAKNTVYLQMNSLKPDDTAVFYCAAVRYEYNPYDYWGQGTQVTVSS | low polyreactivity
29 | QVQLVESGGGLVQAGGSLRLSCAASGSTFVGYVMGWSRQAPGKERELVAAITRSGTSTYYADSVKGRFTISRDNAKNTVYLQMNSLKPEDTAVYYCARRYVSSDYYYWGQGTQVTVSS | low polyreactivity
30 | QVHLVESGGGLVQAGGRLRLSCAASGFTFYKYAMGWYRQAPGKERELVAAITWSGGRTYYADSVKGRFTISRDNAKNTVYLQMNSLKPEDTAVYYCAADLHKLARYDYWGQGTQVTVSS | high polyreactivity
31 | QVQLVESGAGIVQAGGSLRLSCAASGSTFGINAMGWYRQAPGKEREFVASISWSTGTTYYADSVKGRFTISRDNAKNTVYLQRNSLKPEDTAVYYCAADSSRFYGRPRYYYWGQGTQVTVSS | high polyreactivity
32 | QVQLVESGGGLVQAGGSLRLSCAASGRTFKRYAMGWYRQAPGKERELVATISGNGGRTYYADSVKGRFTISRDNAKNTVYLQMNSLKPEDTAVYYCAALLYIRSVGYDYWGQGTQVTVSS | low polyreactivity
33 | QDQHVESGGGLVQAGCSLRLSCAASGSIFSWNAMGWYRQAPGKERELVAAIRWDTGSTYYADSVKVRFTISRDKAKNTVYLQMNRLKPEDTAVYYCAADLFDCQLIDGFAVVTYGYWGQGTQVTVSS | low polyreactivity
34 | QVQLVESGGGLVHAGGSLRLSCAASGRTFWSYAMGWYRQAPGKERELVAAIRTSDGITYYADSVKGRFTISRDNAKNTVYLQMNSLKPEDTAVYYCAAENWYKYDYWGQGTQVTVSS | low polyreactivity
35 | QVQLVESGGGLVQAGRSLRLSCAASGSIFRIYAMGWYGQAPGKERELVAAITWSGGGTYYADSVKGRFTNSRDNAKNTVYLQMYSLKPEDTAVYYCAADYWGYDIYYGLSERESWGQGTQVTVSS | high polyreactivity
36 | QVQLEESGGGLVQAGGSLRLSCAASGSIFDTYAMGWYRQAPGNERELVAAISSGGRTYYADSVKGRFTISRDNAKNTVYLQMNSLKPEDTAVYYCNARYHARYGGDYWGQGTQVTVSS | high polyreactivity
37 | QVQLVESGGGLVQAGGSLRLSCAASGNTFYIYAMGWYRQAPGKERELVAAISRGGGSTYYAESVKGRFTISRDNAMNTVYLQLNSLKPEDTAVYYCAADYYYSRYDYWGQGTQVTVSS | high polyreactivity
38 | QVQLVESGGGLVQAGGSLRLSCAASGRTFVDYDMGWYRQAPGKERELVADINSGGSTYYADSVKGRFTISRDNAKNTVYLQMNSQKPEDTAVYDCAVRSRGTAPQYYYWGQGTQVTVSS | high polyreactivity
39 | QVQLVESGGGLVQAGGSLRLSCAASGFIVGHYAMGWYRQAPGQEREFVAAITSGGTTYYADSVKGRFTISRDNAKNTVYLQMNSLKPEDTAVYYCNADDAFRYYWLGLYDYWGQGTQVTVSS | low polyreactivity
40 | QVQLVESGGGLVQAGGSLRLSCAAAGLISIRILMGWYRQAPGKERELVAGITSTGSTSYADSVKGRFTSSRDNAKNTVYLQMNSLKPEDTAVYYCNTKGSRPGIWPTTSGYWGHGTQVTVSS | high polyreactivity
41 | QVQLVESGGGLVQAGGSLRLSCAASGSIFVGNAMGWYRQAPGTERELVAAISSSGGSTYSADSVKGRFTISRDNAKNTVYLQMNSLKPEDTAVYYCAADTYSTSGYYYWGQGTQVTVSS | low polyreactivity
42 | QVQLVESGGGLVQAGGSLRLSCAASGSIFAIYAMGWYRQAPGKERELVAAISYGDGSTYYADSVKGRFTISRDNAKNTVYLQMNSLKPEDTAVYYCAVGTRVKYDYWGQGTQVTVSS | high polyreactivity
43 | QVQLVESGGGLVQAGGSLRLSCAASGFTFRRNAMGWYRQAPGKERELVAAITRGGGSTYYADSVKGRFTISRDNAKNTVYLQMNSLKPEDTAVYYCAADGYYQYESWGQGTQVTVSS | high polyreactivity
